Measured values from publication PMC6142190, “FIH permits NAA10 to catalyze the oxygen-dependent lysyl-acetylation of HIF-1α” (Redox Biology, 2018).

Target: T1, GST-FIH (human, UniProt Q9NWT6 1-349)
T1 construct: human FIH, cDNA NM_017902.2 in pGEX; also called recombinant FIH
Experiment: pull-down; GST-FIH and His-NAA10 WT or W38F in binding buffer, 4 °C, 1 h; nickel affinity beads; Western blot
Details: both partners purified

T1 sequence (Q9NWT6 whole entry): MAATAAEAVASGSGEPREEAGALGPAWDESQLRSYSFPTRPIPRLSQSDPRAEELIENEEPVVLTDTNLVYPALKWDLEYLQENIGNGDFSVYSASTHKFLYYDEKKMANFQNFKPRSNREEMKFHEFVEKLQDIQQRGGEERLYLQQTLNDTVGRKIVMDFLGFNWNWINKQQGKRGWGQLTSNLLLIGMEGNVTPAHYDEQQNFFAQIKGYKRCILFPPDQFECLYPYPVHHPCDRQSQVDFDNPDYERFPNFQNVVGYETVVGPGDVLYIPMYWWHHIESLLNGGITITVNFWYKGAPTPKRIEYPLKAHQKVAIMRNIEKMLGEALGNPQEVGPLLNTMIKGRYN

B1: His(6)-NAA10 W38F (enzyme, human, UniProt P41227-1 1-235, looked up)
chain: MNIRNARPEDLMNMQHCNLLCLPENYQMKYYFYHGLSFPQLSYIAEDENGKIVGYVLAKMEEDPDDVPHGHITSLAVKRSHRRLGLAQKLMDQASRAMIENFNAKYVSLHVRKSNRAALHLYSNTLNFQISEVEPKYYADGEDAYAMKRDLTQMADELRRHLELKEKGRHVVLGAIENKVESKGNSPPSSGEACREEKGLAAEDSGGDSKDLSEVSETTESTDVKDSSEASDSAS
notes: human NAA10, cDNA NM_003491 in pET-28c-HIS, with W38F by PCR-based mutagenesis; also called W38F mutant; source: E. coli BL21, purified (Nickel-NTA beads, eluted with imidazole)
  binding result: binds
